Measured values reported in IntAct's records for PubMed 31515488.

B1: Emerin (Homo sapiens), P50402 (parent)
chain: MDNYADLSDTELTTLLRRYNIPHGPVVGSTRRLYEKKIFEYETQRRRLSPPSSSAASSYSFSDLNSTRGDADMYDLPKKEDALLYQSKGYNDDYYEESYFTTRTYGEPESAGPSRAVRQSVTSFPDADAFHHQVHDDDLLSSSEEECKDRERPMYGRDSAYQSITHYRPVSASRSSLDLSYYPTSSSTSFMSSSSSSSSWLTRRAIRPENRAPGAGLGQDRQVPLWGQLLLFLVFVIVLFFIYHFMQAEEGNPF
partner: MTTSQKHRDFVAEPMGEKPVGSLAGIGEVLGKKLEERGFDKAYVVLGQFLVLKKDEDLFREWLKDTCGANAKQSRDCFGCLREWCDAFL
B2: Tuftelin-interacting protein 11 (Homo sapiens), Q9UBB9 (parent)
chain: MSLSHLYRDGEGRIDDDDDERENFEITDWDLQNEFNPNRQRHWQTKEEATYGVWAERDSDDERPSFGGKRARDYSAPVNFISAGLKKGAAEEAELEDSDDEEKPVKQDDFPKDFGPRKLKTGGNFKPSQKGFAGGTKSFMDFGSWERHTKGIGQKLLQKMGYVPGRGLGKNAQGIINPIEAKQRKGKGAVGAYGSERTTQSMQDFPVVDSEEEAEEEFQKELSQWRKDPSGSKKKPKYSYKTVEELKAKGRISKKLTAPQKELSQVKVIDMTGREQKVYYSYSQISHKHNVPDDGLPLQSQQLPQSGKEAKAPGFALPELEHNLQLLIDLTEQEIIQNDRQLQYERDMVVNLFHELEKMTEVLDHEERVISNLSKVLEMVEECERRMQPDCSNPLTLDECARIFETLQDKYYEEYRMSDRVDLAVAIVYPLMKEYFKEWDPLKDCTYGTEIISKWKSLLENDQLLSHGGQDLSADAFHRLIWEVWMPFVRNIVTQWQPRNCDPMVDFLDSWVHIIPVWILDNILDQLIFPKLQKEVENWNPLTDTVPIHSWIHPWLPLMQARLEPLYSPIRSKLSSALQKWHPSDSSAKLILQPWKDVFTPGSWEAFMVKNIVPKLGMCLGELVINPHQQHMDAFYWVIDWEGMISVSSLVGLLEKHFFPKWLQVLCSWLSNSPNYEEITKWYLGWKSMFSDQVLAHPSVKDKFNEALDIMNRAVSSNVGAYMQPGARENIAYLTHTERRKDFQYEAMQERREAENMAQRGIGVAASSVPMNFKDLIETKAEEHNIVFMPVIGKRHEGKQLYTFGRIVIYIDRGVVFVQGEKTWVPTSLQSLIDMAK
partner: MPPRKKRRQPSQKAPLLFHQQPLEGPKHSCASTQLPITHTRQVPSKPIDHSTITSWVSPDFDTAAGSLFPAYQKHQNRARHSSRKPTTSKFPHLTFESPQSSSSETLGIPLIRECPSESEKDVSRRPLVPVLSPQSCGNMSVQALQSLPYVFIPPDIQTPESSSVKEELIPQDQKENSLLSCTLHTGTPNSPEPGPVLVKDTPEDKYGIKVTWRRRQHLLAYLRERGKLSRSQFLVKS
B3: Notch homolog 2 N-terminal-like protein A (Homo sapiens), Q7Z3S9 (parent)
chain: MCVTYHNGTGYCKCPEGFLGEYCQHRDPCEKNRCQNGGTCVAQAMLGKATCRCASGFTGEDCQYSTSHPCFVSRPCLNGGTCHMLSRDTYECTCQVGFTGKECQWTDACLSHPCANGSTCTTVANQFSCKCLTGFTGQKCETDVNECDIPGHCQHGGTCLNLPGSYQCQCLQGFTGQYCDSLYVPCAPSPCVNGGTCRQTGDFTFECNCLPETVRRGTELWERDREVWNGKEHDEN
partner: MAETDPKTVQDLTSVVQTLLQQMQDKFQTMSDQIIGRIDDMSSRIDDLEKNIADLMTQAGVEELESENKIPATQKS

Variants of: B1
Details: with baf_human BANF1, O75531
MDNYADLSDTELTTLLRRYNIPHGPVVGSTRRLYEKKIFEYETQRRRLSPPSSSAASSYSFSDLNSTRGDAVMYDLPKKEDALLYQSKGYNDDYYEESYFTTRTYGEPESAGPSRAVRQSVTSFPDADAFHHQVHDDDLLSSSEEECKDRERPMYGRDSAYQSITHYRPVSASRSSLDLSYYPTSSSTSFMSSSSSSSSWLTRRAIRPENRAPGAGLGQDRQVPLWGQLLLFLVFVIVLFFIYHFMQAEEGNPF [D72V] was tested, and the “effect of a mutation on the interaction” value was “with no effect”. For MDNYADLSDTELTTLLRRYNIPHGPVVGSTRRLYEKKIFEYETQRRRLSPPSSSAASSYSFSDLNSTRGDADMYDLPKKEDALLYQSKGYNDDYYEESYFTTRTYGEPESAGPSRAVRQSVTSFPDADAFHHQVHDDDLLSSSEEECKDRERPMYGRDSAYQSITHYRPVSASRSSLDLSYYTTSSSTSFMSSSSSSSSWLTRRAIRPENRAPGAGLGQDRQVPLWGQLLLFLVFVIVLFFIYHFMQAEEGNPF [P183T], the “effect of a mutation on the interaction” value was “with no effect”.

Variants of: B2
Details: with rhno1_human RHNO1, Q9BSD3
In the case of S688L, the “effect of a mutation on the interaction” value is reported as “with no effect”. In the case of R8Q, the “effect of a mutation on the interaction” value is reported as “with no effect”.

Variants of: B3
Details: with hsbp1_human HSBP1, O75506
For A115T, the “effect of a mutation on the interaction” value was “with no effect”. With R74Q the “effect of a mutation on the interaction” value was “with no effect”.
